Laboratory results taken from article PMC5543122, “Structural basis of Notch O-glucosylation and O–xylosylation by mammalian protein–O-glucosyltransferase 1 (POGLUT1)” (Nature Communications, 2017).

Assays:
[1] = molecular target: Drosophila Rumi, residues 39-406 (Drosophila) (UniProt Q8T045)
[2] = molecular target: human Protein O-glucosyltransferase 1 (POGLUT1), residues 29-385 (human) (UniProt Q8NBL1)
Chain of UniProt Q8NBL1 (Q8NBL1 29-385): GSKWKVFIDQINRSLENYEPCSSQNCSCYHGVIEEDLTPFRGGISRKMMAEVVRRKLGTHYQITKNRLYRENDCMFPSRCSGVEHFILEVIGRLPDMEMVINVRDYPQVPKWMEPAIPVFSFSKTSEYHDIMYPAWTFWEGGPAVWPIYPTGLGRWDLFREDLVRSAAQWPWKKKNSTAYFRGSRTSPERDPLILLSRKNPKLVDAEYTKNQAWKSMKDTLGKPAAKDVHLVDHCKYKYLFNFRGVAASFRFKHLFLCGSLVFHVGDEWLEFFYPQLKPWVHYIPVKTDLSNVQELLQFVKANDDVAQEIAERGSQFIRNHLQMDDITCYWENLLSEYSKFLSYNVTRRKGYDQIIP

Chain of UniProt Q8T045 (Q8T045 39-406): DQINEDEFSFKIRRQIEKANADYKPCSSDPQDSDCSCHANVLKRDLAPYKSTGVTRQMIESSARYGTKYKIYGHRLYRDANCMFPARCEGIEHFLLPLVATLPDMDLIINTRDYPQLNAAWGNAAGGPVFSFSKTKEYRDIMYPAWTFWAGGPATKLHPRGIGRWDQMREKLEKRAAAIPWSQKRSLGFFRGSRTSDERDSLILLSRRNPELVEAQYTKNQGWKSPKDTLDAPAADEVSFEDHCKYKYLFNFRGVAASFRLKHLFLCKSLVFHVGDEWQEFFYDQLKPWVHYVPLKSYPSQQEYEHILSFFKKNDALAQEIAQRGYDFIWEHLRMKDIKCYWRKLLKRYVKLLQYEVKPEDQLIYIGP

K M of the EGF-like domain (MBP fusion) for glucosylation, 2.5 mM UDP-glucose, coupled spectrophotometric assay, 37 °C [1] [µM]	K M of the EGF-like domain (MBP fusion) for glucosylation, 2.5 mM UDP-glucose, coupled spectrophotometric assay, 37 °C [2] [µM]	Substance
160	155	human Notch1 EGF-like domain 12 with a 4-residue C2C3 loop, MBP fusion (from UniProt P46531 452-488) (domain or fragment)
1000	1000	human Notch1 EGF-like domain 12 with a 6-residue C2C3 loop, MBP fusion (from UniProt P46531 452-488) (domain or fragment)
1000	1000	human Notch1 EGF-like domain 12 with a 7-residue C2C3 loop, MBP fusion (from UniProt P46531 452-488) (domain or fragment)
